Experimental data from paper PMC6365017 (Journal of molecular biology, 2018).
Where a chain is given by its changes, count along the chain named. Numbers in names are those of the source. Values belong to the molecule of their own block, whether it stands above or below them.

Legend:
ZmALDH12 [1] = target: T1, ZmALDH12 (Zea mays, UniProt A0A2H4PMI3); test: microscale thermophoresis, label-free; type: binding
ZmALDH12 [2] = target: T1, ZmALDH12; test: microscale thermophoresis; type: binding
ZmALDH12 [3] = target: ZmALDH12 (Zea mays, UniProt A0A2H4PMI3, C330A); test: microscale thermophoresis; type: binding
[4] = substrate: N[C@@H](CCCC=O)C(=O)O; test: NADH formation, spectrophotometry/fluorescence; type: biochemical, Physcomitrium patens; conditions: 3.0 mM NAD+, 100 mM pyrophosphate pH 7.5, 30 °C
[5] = substrate: NC(CCC=O)C(=O)O; test: NADH formation, spectrophotometry/fluorescence; type: biochemical, Physcomitrium patens; conditions: 3.0 mM NAD+, 100 mM pyrophosphate pH 7.5, 30 °C
[6] = substrate: O=CCCCC(=O)O; test: NADH formation, spectrophotometry/fluorescence; type: biochemical, Physcomitrium patens; conditions: 3.0 mM NAD+, 100 mM pyrophosphate pH 7.5, 30 °C
[7] = substrate: O=C[C@H](O)COP(=O)(O)O; test: NADH formation, spectrophotometry/fluorescence; type: biochemical, Zea mays; conditions: 3.0 mM NAD+, 100 mM pyrophosphate pH 7.5, 30 °C
[8] = substrate: N[C@@H](CCCC=O)C(=O)O; test: NADH formation, spectrophotometry/fluorescence; type: biochemical, Zea mays; conditions: 3.0 mM NAD+, 100 mM pyrophosphate pH 7.5, 30 °C
[9] = substrate: NC(CCC=O)C(=O)O; test: NADH formation, spectrophotometry/fluorescence; type: biochemical, Zea mays; conditions: 3.0 mM NAD+, 100 mM pyrophosphate pH 7.5, 30 °C

Molecule: O=CCCCC(=O)O [GRSAL]
- Kd (ZmALDH12 [2]): 34 ± 11 µM

B1: PpALDH12 (Physcomitrium patens) (protein)
chain: SSTLLSDHRPQSSLSFASCDADKLSEAHQYQMHNLVQGKWEQTSKSIELLDPLNGEKFISVPDTSIDEISPFVQSLRACSKSGLHNPLKNPERYLLYGDIMAKAAHLLKQPQVETFFARLIQRVAPKSFAQAVGEVTVTQKFLENFSGDQVRFLARSFVVPGNYQGQQSNGMRWPYGPVAIITPFNFPLEIPALQALGALFMGNKPILKVDSKVSIVMEQFIRLLHKCGMPPTDMDFINSDGPVMNKLLLEAEPKTTLFTGSSKVAEKLALDLKGRVKLEDAGFDWKILGPDVQNEDYVAWVCDQDAYACSGQKCSAQSILFMHENWANQNFLERLKKLASKRKLEDLTVGPVLTVTTERMLDHVKNLLAIPGARVEFGGKPLTNHTIPDVYGALEPTAVFVPLKEILRNEENFALATTEIFGPFQILTEYKHEDLPLVFEACERMHAHLTAAVVSNDVHFLQEVLSNTVNGTTYAGIRARTTGAPQNHWFGPAGDPRGAGIGTPEAIKLVWSCHREIIQDVGPIPNGWSTPQCT
- Km [4]: 211 ± 13 µM
- kcat [4]: 0.005 ± 0.001 s⁻¹
- kcat/Km [4]: 26 ± 2 M⁻¹ s⁻¹
- Km [5]: 228 ± 40 µM
- kcat [5]: 0.44 ± 0.05 s⁻¹
- kcat/Km [5]: 1900 ± 600 M⁻¹ s⁻¹
- Km [6]: 82 ± 6 µM
- kcat [6]: 0.3 ± 0.02 s⁻¹
- kcat/Km [6]: 3700 ± 600 M⁻¹ s⁻¹

B2: ZmALDH12 (Zea mays) (protein)
chain: APFACVSRWLHTPSFATVSPQEVSGSSPAEVQNFVQGSWTASANWNWIVDPLNGDKFIKVAEVQGTEIKSFMESLSKCPKHGLHNPLKAPERYLMYGDISAKAAHMLGQPTVLDFFAKLIQRVSPKSYQQALAEVQVSQKFLENFCGDQVRFLARSFAVPGNHLGQRSNGYRWPYGPVAIITPFNFPLEIPLLQLMGALYMGNKPVLKVDSKVSIVMEQMIRLLHDCGLPAEDMDFINSDGAVMNKLLLEANPKMTLFTGSSRVAEKLAADLKGRVKLEDAGFDWKILGPDVQEVDYVAWVCDQDAYACSGQKCSAQSVLFMHKNWSSSGLLEKMKKLSERRKLEDLTIGPVLTVTTEAMIEHMNNLLKIRGSKVLFGGEPLANHSIPKIYGAMKPTAVFVPLEEILKSGNFELVTKEIFGPFQVVTEYSEDQLELVLEACERMNAHLTAAIVSNDPLFLQDVLGRSVNGTTYAGIRARTTGAPQNHWFGPAGDPRGAGIGTPEAIKLVWSCHREIIYDVGPVPESWALPSAT
- Km [7]: 1860 ± 99 µM
- kcat [7]: 0.4 ± 0.1 s⁻¹
- kcat/Km [7]: 210 ± 20 M⁻¹ s⁻¹
- Km [8]: 173 ± 12 µM
- kcat [8]: 0.04 ± 0.02 s⁻¹
- kcat/Km [8]: 200 ± 20 M⁻¹ s⁻¹

B3: ZmALDH12 (Zea mays; K329A) (protein)
chain: B2 chain with K313A
- Km [9]: 958 ± 47 µM
- kcat [9]: 0.26 ± 0.01 s⁻¹

Further lines, results first:

- Kd (ZmALDH12 [1]): 3100 ± 300 µM
Molecule: N[C@@H](CCC(=O)O)C(=O)O [glutamate]

- Kd (ZmALDH12 [2]): 186 ± 25 µM
Molecule: NC(=O)c1ccc[n+]([C@@H]2O[C@H](COP(=O)(O)OP(=O)(O)OC[C@H]3O[C@@H](n4cnc5c(N)ncnc54)[C@H](O)[C@@H]3O)[C@@H](O)[C@H]2O)c1 [NAD^+]

- Kd (ZmALDH12 [2]): 166 ± 14 µM
- Kd (ZmALDH12 [3]): 315 ± 48 µM
Molecule: NC(CCC=O)C(=O)O (racemic) [GSAL]
